According to patent US20260232826A1, “ANTIBODY-DRUG CONJUGATES AND THEIR USES” (Mablink Bioscience, priority 2022, published 2026):
Entries after “also recorded” stand apart in the source; their conditions may differ.

How the values were obtained:
[1] = biological target: T1, recombinant human FRα (Homo sapiens, UniProt P15328); assay: Human FRα-binding affinity by SPR (Biacore); conditions: Biacore T200, 25° C. (FIG. 5)
T1 construct: purchased Sino Biological 11241-H08H
Experimental: Surface plasmon resonance (SPR) experiments are performed on a Biacore T200 apparatus, at 25° C. Tested antibody or ADC are captured at low density (300-500 RU) on a CM5 series S sensorchip, beforehand functionalized with a Human Antibody Capture kit (Cytiva cat #BR100839). A functionalized surface/flow cell treated similarly but omitting ligand is used as reference. To measure kinetics rates and affinities, recombinant human FRα (Sino Biological cat #11241-H08H) analyte sample is injected in duplicates at 5 concentrations (0.5, 1, 2, 4, 8 nM) in series using single cycle kinetics strategy and at constant […] flow rate of running buffer (HBS-EP+, Cytiva cat #BR100669) with contact pulses of 300 sec. The dissociation phase is measured by injection of running buffer for 900 sec. Between duplicates, surfaces/flow cells are regenerated with 3M MgCl2 to remove both analyte and ligand, and fresh ligand capture are done using identical conditions. The data analysis is performed using the Biacore Evaluation software after subtraction of reference surface and analyte zero-concentration signals. […]
Surface plasmon resonance (SPR) experiments were performed on a Biacore T200 apparatus, at 25° C. […] The dissociation phase was measured by injection of running buffer for 900 sec. […]

[2] = biological target: T1, recombinant human FRα; assay: Recombinant FRα-binding affinity by ELISA (human); conditions: FIG. 4A/4B
Experimental: Sandwich ELISA assays are performed using 96-well high-binding ELISA plates (Corning Inc., New York, NY, USA, Cat #3590). Plates are coated using 100 µL/well of recombinant human FRα protein (Sino Biological cat #11241-H08H) in PBS (pH 7.4) at 2 μg/mL and incubated overnight at 4° C. After 2 washes with PBS-T (PBS+0.05% Tween-20), the plates are blocked with 200 μL/well of incubation buffer (PBS-T+0.1% BSA) for 1 h at room temperature. The plates are washed 4 times with PBS-T, and 100 μL of a threefold dilution series of tested compound (antibody or antibody-drug conjugate) is added. Then, the plates are incubated for 2 h at room temperature in the dark. After 5 washes with PBS-T, plates are incubated 1 h at room temperature with 100 μL/well of a goat anti-human IgG (H+L) HRP conjugated antibody (Jackson Immunoresearch cat #109-035-088), previously diluted 1:250000 in incubation buffer. After 5 washes with PBS-T, TMB substrate solution (Thermo-Fisher cat #N301) is added. Peroxidase activity is stopped with 0.18M H2SO4 and absorbance is read at 450 nm (reference wavelength 650 nm) using a Thermo Scientific MultiSkan EX microplate reader. Sigmoidal fittings were performed using GraphPad Prism 9 software.
Sandwich ELISA assays were performed using 96-well high-binding ELISA plates (Corning Inc., New York, NY, USA, Cat #3590). Plates were coated using 100 μL/well of recombinant human FRα protein (Sino Biological cat #11241-H08H); recombinant cynomolgus FRα protein (Sino Biological cat #90950-C08H); recombinant rat FRα protein (Sino Biological cat #81073-R08H) or recombinant mouse FRα protein (Sino Biological cat #50573-M08H) in PBS (pH 7.4) at 2 μg/mL and incubated overnight at 4° C. After 2 washes with PBS-T (PBS+0.05% Tween-20), the plates were blocked with 200 μL/well of incubation buffer (PBS-T+0.1% BSA) for 1 h at room temperature. […] Peroxidase activity was stopped with 0.18M H2SO4 and absorbance was read at 450 nm (reference wavelength 650 nm) using a Thermo Scientific MultiSkan EX microplate reader. […]

[3] = biological target: T2, extracellular human FRα expressed on cancerous cell lines (Homo sapiens, UniProt P15328); assay: Cell-binding affinity by flow cytometry; conditions: APC-labelled antibody or ADC, flow cytometry (FIG. 6)
T2 construct: endogenous in cells; host or cells: human cancer cell lines (ATCC/DSMZ/ECACC); BT-474 as FRα-negative control
Experimental: Antibody or ADC binding to extracellular human FRα expressed on cancerous cell lines is assessed by flow cytometry. Tested antibody or ADC is conjugated to APC fluorophore using LYNX Rapid APC Antibody Conjugation Kit according to the manufacturer's protocol (Bio-Rad, Cat #LNK032APC). Into 500000 cells (suspended in 100 μL of PBS in flow cytometry plastic tubes) is added 5 μL of a 10 μg/mL solution of tested APC-labelled antibody or ADC. Cells are incubated 20 min in the dark, are washed with PBS 3 times by centrifugation and are re-suspended in 200 μL of PBS for analysis. Flow cytometry is performed using a BD Fortessa flow cytometer controlled by BD FACSDiva software (BD Biosciences) and data are analyzed using FlowJo software (BD Bioscience).
Antibody or ADC binding to extracellular human FRα expressed on cancerous cell lines was assessed by flow cytometry. Tested antibody or ADC was conjugated to APC fluorophore using LYNX Rapid APC Antibody Conjugation Kit according to the manufacturer's protocol (Bio-Rad, Cat #LNK032APC). Into 500000 cells (suspended in 100 μL of PBS in flow cytometry plastic tubes) was added 5 μL of a 10 μg/mL solution of tested APC-labelled antibody or ADC. Cells were incubated 20 min in the dark, were washed with PBS 3 times by centrifugation and were re-suspended in 200 μL of PBS for analysis. Flow cytometry was performed using a BD Fortessa flow cytometer controlled by BD FACSDiva software (BD Biosciences) and data were analyzed using FlowJo software (BD Bioscience).

[4] = system: FRα positive cancerous cell lines; assay: In vitro cytotoxicity assay (MTT) on FRα+ cancerous cell lines; type: cell-based, Human; conditions: 144 hours incubation, several FRα positive cell lines (FIG. 3)
Experimental: In vitro cytotoxicity of compound exatecan mesylate was assessed on several FRα positive cancerous cell lines. Cells were plated in 96-well plates at an appropriate density depending on the cell line (between 1000 and 10000 cells/well in 100 μL of appropriate culture media) and incubated at 37° C. for 24 hours. Serial dilutions of the tested compound previously dissolved in culture media (50 μL) were added, and incubation was carried at 37° C. out for 144 hours. MTT (5 mg/mL, 20 μL, Sigma-Aldrich) was added into the wells, and incubation was continued for 1 to 2 hours at 37° C. Culture media was then carefully removed, and well content was homogeneously dissolved with acidified isopropanol. Absorbance values were measured on a Multiskan™ Sky microplate reader (Thermo Scientific) using a wavelength of 570 nm (with a reference wavelength of 690 nm). The IC50 concentration values compared to untreated control cells were determined using inhibition dose response curve fitting (GraphPad Prism 9).

T1 sequence (P15328 25-234): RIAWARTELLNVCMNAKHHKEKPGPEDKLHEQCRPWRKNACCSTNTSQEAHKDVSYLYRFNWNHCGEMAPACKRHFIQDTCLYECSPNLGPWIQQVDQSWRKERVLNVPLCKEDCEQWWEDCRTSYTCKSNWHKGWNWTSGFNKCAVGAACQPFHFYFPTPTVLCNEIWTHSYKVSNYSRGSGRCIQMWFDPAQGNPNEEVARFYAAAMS
T2 sequence (P15328 25-234): as above

Substance	recombinant human FRα binding (SPR), in words [1]	recombinant human FRα binding (ELISA), in words [2]	human FRα cell binding [3]	IC50's in vitro potencies [4]
farletuzumab: anti-FRα IgG1 antibody, heavy chain SEQ ID NO:11, light chain SEQ ID NO:10	No loss of binding	No loss of binding	Comparable human FRα cell binding; also recorded: binding affinity appeared identical	–
Exatecan Mesylate	–	–	–	sub-nM to low-nM
farletuzumab-LALA: Fc-silent farletuzumab with L234A and L235A mutations, heavy chain SEQ ID NO:9, light chain SEQ ID NO:10	No loss of binding	No loss of binding	Comparable human FRα cell binding	–
mirvetuximab: humanized anti-FRα antibody, heavy chain SEQ ID NO:16, light chain SEQ ID NO:17	–	No significant loss of binding	binding affinity appeared identical	–
